Measurements from the supplement of paper PMC7877785.
± gives the uncertainty stated by the source.

Assay: self-splicing fitness, log relative to wild type (ln ratio); higher = more splicing; Tetrahymena group I intron in knt gene, E. coli kanamycin selection, DiMSum; sequences stand for … in CUCUCU…GGAGGGAAAAGUUAUCAGGCAUGCACCUGGUAGCUAGUCUUUAAACCAAUAGAUUGCAUCGGUUUAAAAGGCAAGACCGUCAAAUUGCGGGAAAGGGGUCAACAGCCGUUCAGUACCAAGUCUCAGGGGAAACUUUGAGAUGGCCUUGCAAAGGGUAUGGUAAUAAGCUGACGGACAUGGUCCUAACCACGCAGCCAAGUCCUAAGUCAACAGAUCUUCUGUUGAUAUGGAUGCAGUUCACAGACUAAAUGUCGGUCGGGGAAGAUGUAUUCUUCUCAUAAGAUAUAGUCGGACCUCUCCUUAAUGGGAGCUAGCGGAUGAAGUGAUGCAACACUGGAGCCGCUGGGAACUAAUUUGUAUGCGAAAGUAUAUUGAUUAGUUUUGGAGUACUCGUGGUCG
Outline: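 Library with all eight P1ex-region intron nucleotides randomised, intron inside the knt kanamycin-resistance gene on pET-22b(+), in E. coli BL21(DE3). Cells grew overnight at 37°C or 30°C on LB agar with or without 25 μg/mL kanamycin (plus 100 μg/mL carbenicillin, 50 μM IPTG, 0.2% rhamnose), in six replicate transformations. Pooled colonies were amplicon-sequenced on Illumina HiSeq 2500. DiMSum fitness is the error-weighted combination of wild-type-normalised replicate fold changes, kanamycin versus none.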

| Sequence | self-splicing fitness (ln) (30 °C) | self-splicing fitness (ln) (37 °C) |
| --- | --- | --- |
| ACACAGCAAUAUUACGCGUU | -4.3 ± 0.16 | -2.29 ± 0.14 |
| ACACAGCAAUAUUACGCUAG | -1.41 ± 0.075 | -1.06 ± 0.092 |
| ACACAGCAAUAUUACGCUUA | -1.75 ± 0.098 | -1.7 ± 0.075 |
| ACACAGCAAUAUUACGGAUG | -1.54 ± 0.058 | -0.668 ± 0.084 |
| ACACAGCAAUAUUACGGGCG | -0.978 ± 0.048 | -0.369 ± 0.062 |
| ACACAGCAAUAUUACGGUGU | -5.22 ± 0.26 | -2.92 ± 0.21 |
| ACACAGCAAUAUUACGGUUA | -1.16 ± 0.059 | -0.485 ± 0.061 |
| ACACAGCAAUAUUACGUAAA | -3.49 ± 0.15 | -1.2 ± 0.12 |
| ACACAGCAAUAUUACGUGGC | -3.54 ± 0.23 | -0.291 ± 0.13 |
| ACACAGCAAUAUUACGUUAU | -3.35 ± 0.11 | -2.65 ± 0.12 |
| ACACAGCAAUAUUACGUUCA | -1.96 ± 0.066 | -0.442 ± 0.064 |
| ACACAGCAAUAUUACGUUUC | -3.61 ± 0.12 | -2.28 ± 0.14 |
| ACACAGCAAUAUUACGUUUU | -3.42 ± 0.11 | -2.57 ± 0.14 |
| ACAGAGCAAUAUUACGAACA | -2.01 ± 0.26 | -2.67 ± 0.41 |
| ACAGAGCAAUAUUACGACAA |  | -2.31 ± 0.21 |
| ACAGAGCAAUAUUACGACCU | -2.8 ± 0.19 | -0.728 ± 0.16 |
| ACAGAGCAAUAUUACGACGA | -0.906 ± 0.43 | -1.83 ± 0.38 |
| ACAGAGCAAUAUUACGAGGC | -3.42 ± 0.38 | -2.15 ± 0.25 |
| ACAGAGCAAUAUUACGAGUC | -4.65 ± 0.38 | -1.82 ± 0.27 |
| ACAGAGCAAUAUUACGAGUG | -4.35 ± 0.37 | -3.43 ± 0.29 |
| ACAGAGCAAUAUUACGAUCC | -3.76 ± 0.39 | -1.5 ± 0.34 |
| ACAGAGCAAUAUUACGAUCG | -2.71 ± 0.18 | -1.88 ± 0.23 |
| ACAGAGCAAUAUUACGCAGG | -4.02 ± 0.18 | -2.59 ± 0.17 |
| ACAGAGCAAUAUUACGCCUA | -1.68 ± 0.23 | -1.93 ± 0.22 |
| ACAGAGCAAUAUUACGCGUA | -3.21 ± 0.2 | -2.91 ± 0.23 |
| ACAGAGCAAUAUUACGCUAG | -3.28 ± 0.19 | -2.61 ± 0.18 |

| Sequence | self-splicing fitness (ln) (30 °C) | self-splicing fitness (ln) (37 °C) |
| --- | --- | --- |
| ACAGAGCAAUAUUACGCUUA | -2.01 ± 0.22 | -1.25 ± 0.16 |
| ACAGAGCAAUAUUACGGUCA | -2.73 ± 0.22 | -0.944 ± 0.17 |
| ACAGAGCAAUAUUACGGUGC | -3.86 ± 0.44 | -2.09 ± 0.31 |
| ACAGAGCAAUAUUACGUCGG | -3.64 ± 0.16 | -3.58 ± 0.23 |
| ACAGAGCAAUAUUACGUCUU | -1.48 ± 0.18 | -1.98 ± 0.18 |
| ACAGAGCAAUAUUACGUGGA | -3.67 ± 0.31 | -2.88 ± 0.31 |
| ACAGAGCAAUAUUACGUUUC |  | -2.31 ± 0.39 |
| ACAUAGCAAUAUUACGAAGC |  | -1.85 ± 0.42 |
| ACAUAGCAAUAUUACGACCG | -0.782 ± 0.098 | -0.154 ± 0.14 |
| ACAUAGCAAUAUUACGAGCA | -2.89 ± 0.12 | -1.1 ± 0.11 |
| ACAUAGCAAUAUUACGAGGU | -3.59 ± 0.16 | -3.3 ± 0.15 |
| ACAUAGCAAUAUUACGAUGG | -1.64 ± 0.088 | -0.176 ± 0.11 |
| ACAUAGCAAUAUUACGAUUG | -2.62 ± 0.1 | -0.942 ± 0.11 |
| ACAUAGCAAUAUUACGCCCA | -0.769 ± 0.13 | -0.85 ± 0.15 |
| ACAUAGCAAUAUUACGCGCA | -0.42 ± 0.076 | -0.818 ± 0.088 |
| ACAUAGCAAUAUUACGCGGU | -3.36 ± 0.17 | -2.86 ± 0.26 |
| ACAUAGCAAUAUUACGCUUG | -1.76 ± 0.11 | -1.28 ± 0.14 |
| ACAUAGCAAUAUUACGGAGG | -3 ± 0.17 | -0.703 ± 0.15 |
| ACAUAGCAAUAUUACGGUAC | -4.24 ± 0.33 | -2.51 ± 0.27 |
| ACAUAGCAAUAUUACGGUCG | -1.62 ± 0.088 | -0.223 ± 0.1 |
| ACAUAGCAAUAUUACGUGGG | -3.52 ± 0.12 | -2.75 ± 0.12 |
| ACAUAGCAAUAUUACGUGUC | -4.9 ± 0.41 | -2.72 ± 0.28 |
| ACCAAGCAAUAUUACGACGG | -0.86 ± 0.08 | 0.495 ± 0.1 |
| ACCAAGCAAUAUUACGAGCC | -3.61 ± 0.2 | -1.08 ± 0.15 |
| ACCAAGCAAUAUUACGAGUG | -2.09 ± 0.052 | -1.14 ± 0.062 |
| ACCAAGCAAUAUUACGAUAU | -3.22 ± 0.11 | -2.17 ± 0.095 |

| Sequence | self-splicing fitness (ln) (30 °C) | self-splicing fitness (ln) (37 °C) |
| --- | --- | --- |
| ACCAAGCAAUAUUACGAUGU | -1.7 ± 0.057 | -1.03 ± 0.073 |
| ACCAAGCAAUAUUACGCAAG | -2.05 ± 0.072 | -2.12 ± 0.12 |
| ACCAAGCAAUAUUACGCAUU | -2.81 ± 0.085 | -1.26 ± 0.077 |
| ACCAAGCAAUAUUACGCCCA | -1.06 ± 0.13 | -0.545 ± 0.17 |
| ACCAAGCAAUAUUACGCCUG | -2.05 ± 0.18 | -2.31 ± 0.25 |
| ACCAAGCAAUAUUACGCGUG | -2.41 ± 0.083 | -1.19 ± 0.07 |
| ACCAAGCAAUAUUACGGCCU | -0.444 ± 0.072 | -0.31 ± 0.083 |
| ACCAAGCAAUAUUACGGUGC | -2.72 ± 0.14 | -2.12 ± 0.23 |
| ACCAAGCAAUAUUACGUACU | -0.582 ± 0.049 | -0.135 ± 0.071 |
| ACCAAGCAAUAUUACGUAUA | -3.38 ± 0.16 | -2.36 ± 0.12 |
| ACCAAGCAAUAUUACGUCAC | -3.68 ± 0.47 | -2.89 ± 0.27 |
| ACCAAGCAAUAUUACGUCCU | -0.777 ± 0.058 | 0.0592 ± 0.075 |
| ACCAAGCAAUAUUACGUGAA | -2.5 ± 0.08 | -1.54 ± 0.091 |
| ACCAAGCAAUAUUACGUGAG | -1.19 ± 0.07 | -0.649 ± 0.086 |
| ACCAAGCAAUAUUACGUGUC | -2.94 ± 0.11 | -3.34 ± 0.18 |
| ACCAAGCAAUAUUACGUUUA | -2.41 ± 0.12 | -1.82 ± 0.11 |
| ACCCAGCAAUAUUACGAAAG | -2.85 ± 0.13 | -1.47 ± 0.17 |
| ACCCAGCAAUAUUACGAAGG | -1.71 ± 0.071 | -0.892 ± 0.1 |
| ACCCAGCAAUAUUACGAAUA | -2.29 ± 0.14 | -1.19 ± 0.12 |
| ACCCAGCAAUAUUACGACUU | 0.148 ± 0.042 | 0.908 ± 0.062 |
| ACCCAGCAAUAUUACGAGCC | -3.18 ± 0.15 | -1.54 ± 0.14 |
| ACCCAGCAAUAUUACGAUGU | -0.18 ± 0.041 | -0.0583 ± 0.052 |
| ACCCAGCAAUAUUACGCAAA | -1.21 ± 0.065 | -0.816 ± 0.068 |
| ACCCAGCAAUAUUACGCACA | -1.56 ± 0.081 | -0.306 ± 0.11 |
| ACCCAGCAAUAUUACGCACC | -1.17 ± 0.1 | -0.52 ± 0.16 |
